What was measured:
[1] = target: mononucleosome (calf thymus histone octamer assembled on 601 nucleosome positioning sequence DNA) (bovine (calf thymus))
[2] = target: mononucleosome (calf thymus histone octamer assembled on 601 nucleosome positioning sequence DNA) (bovine (calf thymus)); assay: native gel or EMSA; 2 nM IRDYE-labeled mononucleosome with 50 bp of linker DNA on both ends, 2-fold dilution series of CHD enzyme; EMSA buffer (20 mM Tris HCl pH 8.0, 75 mM NaCl, 5 mM MgCl2), 30 min at 25 °C, 4% native PAGE

Row | Substance | Km of nucleosome-stimulated ATP hydrolysis (nucleosome concentration at half-maximal ATPase activation; mononucleosome with 50-bp linker DNA on both sides) [1] [nM] | fold affinity against the nucleosome with only one 100-bp DNA linker [2] [fold]
1 | CHD7 (from UniProt Q9P2D1 1-2997) (enzyme) | 6 | 
2 | CHD6 (from UniProt Q8TD26 1-2715) (enzyme) | 6 | 
3 | CHD8 (from UniProt Q9HCK8 1-2581) (enzyme) | 55 | 2
